Measurements published in publication PMC4140278.
Blank lines part the entries; values can stand above or below the substance they belong to.

Key:
[1] = biological target: arrestin-3 (β-arrestin-2) (UniProt P32121); assay: BRET, arrestin-3-Rluc / FLAG-FFA4-eYFP, 5 min; settings: for percent of reference: reference: wild type
[2] = biological target: arrestin-3 (β-arrestin-2) (UniProt P32121); assay: kinetic BRET, arrestin-3-Rluc / FFA4-eYFP; settings: reference: wild type; sites T347,S350,S357

Substance: FFA4 (GPR120) (from UniProt Q5NUL3) TTSS/AAAA
other: Emax, % of wild type ([1]; reference: TSS/AAA, sites T349): same; reference 77 ± 2
percent of reference ([1]; sites T347,T349,S350,S357): 84%

Substance: FFA4 (GPR120) (from UniProt Q5NUL3) TSS/AAA
other: t½ of association [2]: weaker; reference 46 ± 6
percent of reference ([1]; sites T347,S350,S357): 77%

Substance: FFA4 (GPR120) (from UniProt Q5NUL3) S360A
percent of reference ([1]; sites S360): 85%

Substance: FFA4 (GPR120) (from UniProt Q5NUL3) TSSS/AAAA
other: Emax, % of wild type ([1]; reference: TSS/AAA, sites S360): weaker; reference 77 ± 2
percent of reference ([1]; sites T347,S350,S357,S360): 38%

Substance: FFA4 (GPR120) (from UniProt Q5NUL3) TTSSS/AAAAA-EDD/AAA
other: Emax, % of wild type ([1]; reference: EDD/AAA, sites T347,T349,S350,S357,S360): weaker; reference 69 ± 7

Substance: FFA4 (GPR120) (from UniProt Q5NUL3) TUG-891 10 µM, 5 min
other: milli-BRET units ([1]; reference: vehicle, sites T347,T349,S350,S357,S360): stronger; reference 63 ± 6

Now from value to substance:

other: Emax, % of wild type ([1]; reference: DD/AA, sites T347,T349,S350,S357,S360): 21%
Substance: FFA4 (GPR120) (from UniProt Q5NUL3) TTSSS/AAAAA-DD/AA

other: Emax, % of wild type ([1]; reference: DD/AA, sites T347,S350,S357): 40%
Substance: FFA4 (GPR120) (from UniProt Q5NUL3) TSS/AAA-DD/AA

other: Emax, % of wild type ([1]; reference: TSS/AAA, sites T349,S360): weaker; reference 77 ± 2
other: Emax, % of wild type ([1]; reference: TSSS/AAAA, sites T349): same; reference 38 ± 2
other: Emax, % of wild type ([1]; reference: TTSS/AAAA, sites S360): weaker; reference 84 ± 7
percent of reference ([1]; sites T347,T349,S350,S357,S360): 42%
Substance: FFA4 (GPR120) (from UniProt Q5NUL3) TTSSS/AAAAA
